Laboratory results: CN114409788A (WEST CHINA HOSPITAL OF SICHUAN UNIV, dated 2022)

Experiments:
[1] = target: T1, human CD38 Protein (ECD, His Tag) (human, UniProt P28907 43-300); assay: ELISA, human CD38 ECD-His coated on plate, detection with HRP goat anti-mouse IgM, OD450
T1 construct: extracellular domain; Commercial recombinant antigen coated on the ELISA plate at 0.5 ug/ml; also called 未标记抗原; not shown: His tag
T1 sequence (looked up): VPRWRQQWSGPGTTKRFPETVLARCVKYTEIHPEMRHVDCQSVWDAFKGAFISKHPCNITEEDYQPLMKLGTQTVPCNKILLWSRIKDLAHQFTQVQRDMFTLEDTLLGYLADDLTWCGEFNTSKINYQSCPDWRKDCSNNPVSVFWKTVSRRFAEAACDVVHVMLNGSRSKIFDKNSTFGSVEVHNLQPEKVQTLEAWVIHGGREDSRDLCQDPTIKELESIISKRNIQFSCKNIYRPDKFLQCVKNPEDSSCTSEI

[2] = target: T2, mono-Mac-6细胞表面的CD38 (UniProt P28907 1-300, limits assumed); assay: flow cytometry on mono-Mac-6 cells, antibody production supernatant, APC anti-IgM secondary antibody
T2 construct: whole, on cells; also called CD38 on mono-Mac-6 cells
T2 sequence (looked up): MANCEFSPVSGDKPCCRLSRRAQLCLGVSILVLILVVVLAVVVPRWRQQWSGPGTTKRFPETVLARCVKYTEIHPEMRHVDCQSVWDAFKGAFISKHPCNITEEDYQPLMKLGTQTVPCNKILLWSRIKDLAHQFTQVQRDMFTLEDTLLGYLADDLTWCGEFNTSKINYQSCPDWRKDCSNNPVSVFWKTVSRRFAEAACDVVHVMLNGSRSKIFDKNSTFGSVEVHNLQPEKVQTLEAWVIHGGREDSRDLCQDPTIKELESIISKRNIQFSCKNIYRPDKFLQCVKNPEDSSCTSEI

B1: 单克隆抗体70B5 (抗CD38的单克隆抗体) (antibody, V domains shown)
VH: EVQLQQSGPELVKPGASVKISCKASGYTFTDYYMNWVKQSHGKSLEWIGDINPNNGGTSYNQKFKGKATLTVDKSSSTAYMELRSLTSEDSAVYYCARGYYSNPFDVWGTGTTVTVSS
VL: DIQMTQSPSSLSASLGERVSLTCRASQDIGSSLNWLQQEPDGTIKRLIYATSSLDSGVPKRFSGSRSGSDYSLTISSLESEDFVDYYCLQYASSPLTFGAGTKLELK
notes: also called 70B5抗体
binding result [1]: binds | binding result [2]: binds
